In the Human Domainome abundance scans (Beltran et al. 2025) one finds abundance fitness data, which are given here for 35 variants.

First the molecules themselves.
B1: POU domain, class 3, transcription factor 1, residues 247 to 324; numbered along this chain, Q03052 (parent)
chain: EDAPSSDDLEQFAKQFKQRRIKLGFTQADVGLALGTLYGNVFSQTTICRFEALQLSFKNMCKLKPLLNKWLEETDSSS

± gives the uncertainty stated by the source.

This data set covers variants of B1. The data set is described as follows: abundance fitness (aPCA) (normalised: wild type 0, dead -1); higher = more abundant; growth selection in yeast, the domain comes from the species named. The following applies: Homo sapiens.
In the case of EDAPSSDDLEQFAKQFKQRRIKLGFTQADVGLALGTLYGNVFSQTTICRFEALQLSFKNMCKLKPLLNKGLEETDSSS [W70G], the abundance fitness is -0.687 ± 0.066.
As for EDAPSSDDLEQFAKQFKQRRIKLGFTQADVGLALGTLYGNVFSQTTICRFEALQLSFKNMCKLKPLLNKKLEETDSSS [W70K], the figure is -0.756 ± 0.21; as for EDAPSSDDLEQFAKQFKQRRIKLGFTQADVGLALGTLYGNVFSQTTICRFEALQLSFKNMCKLKPLLNKYLEETDSSS [W70Y], -0.296 ± 0.18; as for EDAPSSDDLEQFAKQFKQRRIKLGFTQADVGLALGTLYGNVFSQTTICRFEALQLSFKNMCKLKPLLNKDLEETDSSS [W70D], -0.485 ± 0.16.
Next, EDAPSSDDLEQFAKQFKQRRIKLGFTQADVGLALGTLYGNVFSQTTICRFEALQLSFKNMCKLKPLLNKCLEETDSSS [W70C]: -0.762 ± 0.2; EDAPSSDDLEQFAKQFKQRRIKLGFTQADVGLALGTLYGNVFSQTTICRFEALQLSFKNMCKLKPLLNKSLEETDSSS [W70S]: -0.348 ± 0.07; EDAPSSDDLEQFAKQFKQRRIKLGFTQADVGLALGTLYGNVFSQTTICRFEALQLSFKNMCKLKPLLNKQLEETDSSS [W70Q]: -0.881 ± 0.2.
As for EDAPSSDDLEQFAKQFKQRRIKLGFTQADVGLALGTLYGNVFSQTTICRFEALQLSFKNMCKLKPLLNKPLEETDSSS [W70P], the abundance fitness is -0.93 ± 0.21.
As for EDAPSSDDLEQFAKQFKQRRIKLGFTQADVGLALGTLYGNVFSQTTICRFEALQLSFKNMCKLKPLLNKHLEETDSSS [W70H], the figure is -0.374 ± 0.23.
As for EDAPSSDDLEQFAKQFKQRRIKLGFTQADVGLALGTLYGNVFSQTTICRFEALQLSFKNMCKLKPLLNKTLEETDSSS [W70T], the figure is -0.595 ± 0.17; as for EDAPSSDDLEQFAKQFKQRRIKLGFTQADVGLALGTLYGNVFSQTTICRFEALQLSFKNMCKLKPLLNKVLEETDSSS [W70V], -0.58 ± 0.069.
As for EDAPSSDDLEQFAKQFKQRRIKLGFTQADVGLALGTLYGNVFSQTTICRFEALQLSFKNMCKLKPLLNKRLEETDSSS [W70R], the figure is -0.679 ± 0.077.
Turning to EDAPSSDDLEQFAKQFKQRRIKLGFTQADVGLALGTLYGNVFSQTTICRFEALQLSFKNMCKLKPLLNKALEETDSSS [W70A], the abundance fitness was -0.689 ± 0.1.
As for EDAPSSDDLEQFAKQFKQRRIKLGFTQADVGLALGTLYGNVFSQTTICRFEALQLSFKNMCKLKPLLNKILEETDSSS [W70I], the figure is -0.707 ± 0.29; as for EDAPSSDDLEQFAKQFKQRRIKLGFTQADVGLALGTLYGNVFSQTTICRFEALQLSFKNMCKLKPLLNKFLEETDSSS [W70F], 0.086 ± 0.11; as for EDAPSSDDLEQFAKQFKQRRIKLGFTQADVGLALGTLYGNVFSQTTICRFEALQLSFKNMCKLKPLLNKELEETDSSS [W70E], -0.753 ± 0.11.
Take EDAPSSDDLEQFAKQFKQRRIKLGFTQADVGLALGTLYGNVFSQTTICRFEALQLSFKNMCKLKPLLNKMLEETDSSS [W70M]: the abundance fitness is -0.756 ± 0.19.
As for EDAPSSDDLEQFAKQFKQRRIKLGFTQADVGLALGTLYGNVFSQTTICRFEALQLSFKNMCKLKPLLWKWLEETDSSS [N68W], the abundance fitness was -0.118 ± 0.053.
As for EDAPSSDDLEQFAKQFKQRRIKLGFTQADVGLALGTLYGNVFSQTTICRFEALQLSFKNMCKLKPLLPKWLEETDSSS [N68P], the figure is -0.763 ± 0.17; as for EDAPSSDDLEQFAKQFKQRRIKLGFTQADVGLALGTLYGNVFSQTTICRFEALQLSFKNMCKLKPLLQKWLEETDSSS [N68Q], 0.011 ± 0.076; as for EDAPSSDDLEQFAKQFKQRRIKLGFTQADVGLALGTLYGNVFSQTTICRFEALQLSFKNMCKLKPLLAKWLEETDSSS [N68A], 0.029 ± 0.051.
As for EDAPSSDDLEQFAKQFKQRRIKLGFTQADVGLALGTLYGNVFSQTTICRFEALQLSFKNMCKLKPLLYKWLEETDSSS [N68Y], the figure is -0.162 ± 0.15; as for EDAPSSDDLEQFAKQFKQRRIKLGFTQADVGLALGTLYGNVFSQTTICRFEALQLSFKNMCKLKPLLIKWLEETDSSS [N68I], -0.028 ± 0.1.
Regarding EDAPSSDDLEQFAKQFKQRRIKLGFTQADVGLALGTLYGNVFSQTTICRFEALQLSFKNMCKLKPLLTKWLEETDSSS [N68T], the abundance fitness was 0.145 ± 0.059.
Turning to EDAPSSDDLEQFAKQFKQRRIKLGFTQADVGLALGTLYGNVFSQTTICRFEALQLSFKNMCKLKPLLDKWLEETDSSS [N68D], the abundance fitness was -0.071 ± 0.1.
As for EDAPSSDDLEQFAKQFKQRRIKLGFTQADVGLALGTLYGNVFSQTTICRFEALQLSFKNMCKLKPLLKKWLEETDSSS [N68K], the figure is 0.007 ± 0.078.
As for EDAPSSDDLEQFAKQFKQRRIKLGFTQADVGLALGTLYGNVFSQTTICRFEALQLSFKNMCKLKPLLSKWLEETDSSS [N68S], the figure is 0.02 ± 0.055; as for EDAPSSDDLEQFAKQFKQRRIKLGFTQADVGLALGTLYGNVFSQTTICRFEALQLSFKNMCKLKPLLHKWLEETDSSS [N68H], 0.108 ± 0.12.
As for EDAPSSDDLEQFAKQFKQRRIKLGFTQADVGLALGTLYGNVFSQTTICRFEALQLSFKNMCKLKPLLEKWLEETDSSS [N68E], the figure is 0.082 ± 0.059; as for EDAPSSDDLEQFAKQFKQRRIKLGFTQADVGLALGTLYGNVFSQTTICRFEALQLSFKNMCKLKPLLVKWLEETDSSS [N68V], -0.008 ± 0.053.
For the variant EDAPSSDDLEQFAKQFKQRRIKLGFTQADVGLALGTLYGNVFSQTTICRFEALQLSFKNMCKLKPLLGKWLEETDSSS [N68G], the abundance fitness is -0.049 ± 0.046.
With EDAPSSDDLEQFAKQFKQRRIKLGFTQADVGLALGTLYGNVFSQTTICRFEALQLSFKNMCKLKPLLRKWLEETDSSS [N68R], the abundance fitness is -0.086 ± 0.046.
Next, EDAPSSDDLEQFAKQFKQRRIKLGFTQADVGLALGTLYGNVFSQTTICRFEALQLSFKNMCKLKPLLLKWLEETDSSS [N68L]: 0.038 ± 0.051; EDAPSSDDLEQFAKQFKQRRIKLGFTQADVGLALGTLYGNVFSQTTICRFEALQLSFKNMCKLKPLLFKWLEETDSSS [N68F]: -0.175 ± 0.1.
As for EDAPSSDDLEQFAKQFKQRRIKLGFTQADVGLALGTLYGNVFSQTTICRFEALQLSFKNMCKLKPLLMKWLEETDSSS [N68M], the abundance fitness was determined as 0.042 ± 0.063.
